Reference: PMC8158037

Biological target: δ-toxin (secreted by S. aureus MW2 and its ΔPSMα strain) (Staphylococcus aureus MW2)
Assay: AUC + SEC-MALS + native MS + cross-linking

**Q.** How did the stoichiometry N turn out when “δ-toxin (secreted by S. aureus MW2 and its ΔPSMα strain) (peptide)” was run?
**A.** Its stoichiometry N is 8.
